Laboratory results as given in the DeepSol protein solubility set.

experiment: soluble on expression in E. coli; label from the status in PepcDB or PDB records

Sequence	soluble on expression in E. coli
MSLDLREYSTDHQKIKRIEFNCKSKNNTLDGLLTPEEIVAEAKRQGHSAVGISDYNSIFSFPEFYYAAKANNIKPIYGAGFAMLEDTNGAFLTEFQNQDLITGRYVVFDIETTSLSAYHGEIIEFAATIIENKAVVDKVDIFIKSKEKLSHFTTRLTSITNEMLDQKGIELKEALQKIYDVMNNNVAVAHNANFDYNFLIEKFDQNNMQAPKCTFIDSLVVSRILFEHRDKHNLNEFCRNMSVNYDTEKAHRALYDTEVLADAWIEATLKMKDIKQISNFQELSEYKSDALFSKYFSLYINTVVKNQAGLKELFQLVSIANTKTFYGAPKIFWSTLKSFKNILVGSNGVQGELFDIMMLSSRQRVEKYIQKLDYIEIPHPDLFDSYLDRNQLTKDQLLESLQILISLAKKHNKLIISTAEPRYRHKGDREIFKVLTSFPIRDKRHFLWNYKAVKAGNYSVPNFYFLTTDEMLDAFSFLKDKSLIEDIVVNNAHKLNNLIDENIEVIKTDLYPPSIKNSSELLKDLVYKNAKKKYGEVLPKLVQDRIDKELIPIINYKFDVVYWISHILVKKANDDGYVVGSRGSVGSSLIANLINITEVNPLEPHYICDNCKHFEVVNNDKITSGYDLDDKNCPNCDSIMDKDGHSIPFETFLGFKADKVPDIDLNFSGEYQIAIHNYTRELFGEDKTFRAGTVSSIQYRKAFGFIKKYIEDTNTFYSNGFIDYLAEKCIDVKVTTGKHAGGIVVLPENLDIEEFTPVNYASDGLEDKEWKTTHFKYDFLKENLLKLDLLGHSDPTQIRFLEQATGLLSKNIPKKDKNLLKLFSSTEPMEIDPNDINGETTGAIALPEFGTKFTREIIKTSKPHLFADLISISGLSHGQNVWKNNAEDLILNENKTLNEIVCCRDDIMNYLIKKGVDASLSFKVTESVRKGKGVDSEDIKILSTYNIPDWFFDSMQKIKYMFPRAHAVAYVIMAWRMGYYKLYYPLEFYASFFSVKCSKFDLSAMIDFSKDGYWKIKNKIEEIEKLIRTNNKKDNKKEEDILESLNVALEMYSRGFTIQNIDIEKSDAYNWIIDKDSKSLIPPFSALDGIEAGAIKIINARKERPFKTVLDFAKRSGVSSTIVEKLKELNVFKDLPESEQLSLFGEGHHHHHH	soluble
MVEQCPALKSRIKPMLSQKRLVYKPLGSFYQVLSAEAYTKHGLNVHGVVFDELHAQPNRDLYDVMLHGSGDARKQPLFFLITTAGTDRNSICWEVHQKAEDILQGRKIDPTFYPVIYSASDTDDWTSEKVWRKVNPSLGITVDIEKLRVACENAKQNPAEENLFRQLRLNQWVKQSVRWMPMDKWDKCAFPVDAEKLRGRTCYGGLDLSSTTDITAFVLVFPPLDESDKYQILTFFWIPEENIDQRVRRDHVPYDVWERQGFLYTTEGNVVHYGFIETFIEELGMKYNIKEIAFDRWGAIQMTQNLEALGFTVVPFGQGFKDMSPPTKELMKLTLEERIAHGGHPVLRWMMDNIYVKTDPAGNIKPDKEKSTERIDGAVALIMALDRALRHDGDERNGSIYDERGILFL	soluble
MRSKLNQYNQKRNFTRTLEPEGITEMPQEGLRFVVQHHLARRDHYDLRLEWDGAMLSWAVPKGPSYNTWDKRLAVQVEDHPLEYRHFEGTIPKGEYGGGVVMLWDEGFWEPYVDVDGGLHEGMLKFVLKGRRLKGRWALVRMKGKAGDKKDNWLLLKEKDDYVQTADGISQFTTSLEHHHHHH	not soluble
TPMRSPIIWINGPFGVGKTHTAHTLHERLPGSFVFEPEEMGQALRKLTPGFSGDPQEHPMWIPLMLDALQYASREAAGPLIVPVSISDTARHRRLMSGLKDRGLSVHHFTLIAPLNVVLERLRRDGQPQVNVGTVEDRLNELRGEQFQTHIDTAGLGTQQVAEQIAAQVGLTLAPPPQGALHW	soluble
MLTHQFNPYSACTSILVGKNASADGSTMIGRNEDSRAAWAKKMIIHAHREFEEPQTFKSQDQTHPFTMTLPKIRAKYTATPEWTAEYGLFEEDGINEYGVAMSATESAYCNTRVLAADPYVKDGIGEEAMVTVTLPYIHSAREGVERLGHIIEEHGTYETNGILFSDVNEVWYMETGAGHYWVAQRIPDDAYAVVANQLAIQEIDFSDHDNYLYAKDIRNFVLDNQLASMDNGLNFREVFGTADLSDRYYNTPRVWYGQRCFTPSVTQTPESFDLPFIQRADGLIHIDQVQGYLASHYQGTPFDPVGQGTATEKHQYRPISLAKTQESHVLQLRPDLPVTLSGIHWLAMGVAAESVYVPFYAGATTTPAAYQVATEKYDATSAYWIFKHVGILVDAHYHELHGELQTVQKELAIQLGHHIIVTDQQVAALTGDELAMALTKANQKAVDQALNTMQALAADLITKSTDMSPLNYDTDLNLLEHHHHHH	not soluble
MRPLLLLALLGWLLLAEAKGDAKPEDNLLVLTVATKETEGFRRFKRSAQFFNYKIQALGLGEDWNVEKGTSAGGGQKVRLLKKALEKHADKEDLVILFTDSYDVLFASGPRELLKKFRQSRSQVVFSAEELIYPDRRLETKYPVVSDGKRFLGSGGFIGYAPNLSKLVAEWEGQDSDSDQLFYTKIFLDPEKREQINITLDHRCRIFQNLDGALDEVVLKFEMGHVRARNLAYDTLPVLIHGNGPTKLQLNYLGNYIPRFWTFETGCTVCDEGLRSLKGIGDEALPTVLVGVFIEQPTPFVSLFFQRLLRLHYPQKHMRLFIHNHEQHHKAQVEEFLAQHGSEYQSVKLVGPEVRMANADARNMGADLCRQDRSCTYYFSVDADVALTEPNSLRLLIQQNKNVIAPLMTRHGRLWSNFWGALSADGYYARSEDYVDIVQGRRVGVWNVPYISNIYLIKGSALRGELQSSDLFHHSKLDPDMAFCANIRQQDVFMFLTNRHTLGHLLSLDSYRTTHLHNDLWEVFSNPEDWKEKYIHQNYTKALAGKLVETPCPDVYWFPIFTEVACDELVEEMEHFGQWSLGNNKDNRIQGGYENVPTIDIHMNQIGFEREWHKFLLEYIAPMTEKLYPGYYTRAQFDLAFVVRYKPDEQPSLMPHHDASTFTINIALNRVGVDYEGGGCRFLRYNCSIRAPRKGWTLMHPGRLTHYHEGLPTTRGTRYIAVSFVDP	not soluble
MTIDTELTNGSSESVPFVFIGGGNMAAAIIKGCQNKGFTPKSNIVIGVQTEKSAEKWRQLGYKNVFTNTLEMLERYSTAIYVICVKPQVFEEVVSSWPVNSRPEFIISVMAGVPLKVLNAKLPFVSGNTTIVRLMPNVASSIGAGASTMCYEKNEKIMNQDSHIELAREFAECVGTVELIPERCFNPAMAIGGSSPAWTFMYIESLADGAVAQGLGRAEAKRLAAQAVLGAAQMVLNSNSGFDIETQHFGSLKDMVCSPGGTTIEGVRALEKNGFRYAVMEAVVAASTKADEMAKSLAK	soluble
MGEKAFKRPNVLSTIGAFGYRAAVFRNVLEAAKLDPSIYYTFISGPEIDPEQFSKVPENVEFTGFTENPFPYYKGSDLVITAGGHGTIMESLAFGLPILSFPDEKHAEQENNASVLEEAGYGKRMSYLTPPEVILACIREIFEDENYSKKTRRLMELAEVLEHHHHHH	soluble
MKYQKLENQEANWKWIYLIRKHREGENITRYEERSLQEAKAQELLESQNYPEKIEEWIKNHLSPALPIKLDQAIRARRKRFFNGEKQHTKKKSIDLEYAVWLRLSKYSRKMKMTLSETITYMIDERESKAQFENQMAAMKTSLKNLLK	not soluble
MSKKCLITGGAGFIGSHLAEELVGRGYNVTIVDNFYKGKNKYHDELMKEIRVIPISVLDKNSIYELVNQHDVVFHLAAILGVKTTMEKSIELIETNFDGTRNILQAALKGKKKVVFASTSEVYGKAKPPFSEEGDRLYGATSKIRWSYAICKTLEETLCLGYALEGLPVTIVRYFNIYGPRAKDGPYAGVIPRFISAALQGEDILVYGDGEQTRCFTYVSDAVEATIRAMDEKVNGEIINIGSENEKSIKEVAEVIKKLTDSSSKIVQVPFEEVYPHGFEEIPNRRPDVTKLKDLVQFQAKVTWEDGLKETIKWFREEDNG	soluble
MAIETILVINKSGGLIYQRNFTNDEQKLNSNEYLILASTLHGVFAIASQLTPKALQLTQQTNIENTIPYIPYVGMSSNRSDTRNGGGNNNKHTNNEKLGSFKGDDFFKEPFTNWNKSGLRQLCTDQFTMFIYQTLTGLKFVAISSSVMPQRQPTIATTDKPDRPKSTSNLAIQIADNFLRKVYCLYSDYVMKDPSYSMEMPIRSNLFDEKVKKMVENLQ	soluble
